Where a chain is given by its changes, count along the chain named.
T1: human CD22-ECD-His protein (human, UniProt P20273 20-687)
T1 construct: Made in house in HEK293E; also called hCD22-ECD-His; recombinant human CD22-ECD His protein; not shown: His tag
T1 sequence: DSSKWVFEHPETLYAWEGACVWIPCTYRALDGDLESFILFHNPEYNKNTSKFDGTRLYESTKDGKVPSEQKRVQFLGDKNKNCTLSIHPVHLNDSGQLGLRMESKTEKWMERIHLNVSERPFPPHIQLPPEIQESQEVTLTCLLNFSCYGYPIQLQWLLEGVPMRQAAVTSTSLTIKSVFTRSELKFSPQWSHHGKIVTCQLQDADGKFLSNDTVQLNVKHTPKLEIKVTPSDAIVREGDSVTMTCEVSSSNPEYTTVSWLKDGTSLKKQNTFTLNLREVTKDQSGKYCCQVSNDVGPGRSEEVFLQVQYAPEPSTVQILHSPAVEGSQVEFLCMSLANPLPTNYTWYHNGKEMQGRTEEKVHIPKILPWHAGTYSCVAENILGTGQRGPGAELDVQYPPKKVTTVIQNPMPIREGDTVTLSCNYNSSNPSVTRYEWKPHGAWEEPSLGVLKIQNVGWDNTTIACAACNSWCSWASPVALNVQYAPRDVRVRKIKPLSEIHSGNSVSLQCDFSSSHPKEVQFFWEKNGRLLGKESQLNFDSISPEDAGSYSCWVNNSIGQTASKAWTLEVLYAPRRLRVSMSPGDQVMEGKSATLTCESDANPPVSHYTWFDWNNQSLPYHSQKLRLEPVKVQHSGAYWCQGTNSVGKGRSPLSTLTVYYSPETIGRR

T2: murine CD22 protein (ACROBiosystems, SI2-M52Ha) (murine, UniProt P35329 22-708)
T2 construct: extracellular domain; also called murine CD22-ECD; murine CD22-ECD-His
T2 sequence (looked up): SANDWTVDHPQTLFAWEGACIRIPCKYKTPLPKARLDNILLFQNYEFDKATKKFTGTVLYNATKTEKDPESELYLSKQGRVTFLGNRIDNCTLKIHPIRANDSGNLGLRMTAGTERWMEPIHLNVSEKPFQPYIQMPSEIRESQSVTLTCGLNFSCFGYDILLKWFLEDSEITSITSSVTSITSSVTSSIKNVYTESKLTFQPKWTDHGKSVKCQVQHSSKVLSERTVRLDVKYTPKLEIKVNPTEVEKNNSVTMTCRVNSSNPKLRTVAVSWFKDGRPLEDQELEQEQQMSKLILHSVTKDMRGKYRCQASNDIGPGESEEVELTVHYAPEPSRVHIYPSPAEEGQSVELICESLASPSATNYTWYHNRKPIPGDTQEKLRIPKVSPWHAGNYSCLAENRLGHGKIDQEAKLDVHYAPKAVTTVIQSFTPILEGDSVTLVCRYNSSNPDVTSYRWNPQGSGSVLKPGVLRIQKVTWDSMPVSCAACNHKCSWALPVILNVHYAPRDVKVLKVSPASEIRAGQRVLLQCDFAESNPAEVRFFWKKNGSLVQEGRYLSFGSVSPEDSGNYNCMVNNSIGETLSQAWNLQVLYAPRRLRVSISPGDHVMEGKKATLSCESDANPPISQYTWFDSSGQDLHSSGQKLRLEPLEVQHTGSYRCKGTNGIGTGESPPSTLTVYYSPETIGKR

T3: human CD22 domain5-7-His (human, UniProt P20273 414-687)
T3 construct: also called hCD22 domain5-7-His; not shown: His tag
T3 sequence: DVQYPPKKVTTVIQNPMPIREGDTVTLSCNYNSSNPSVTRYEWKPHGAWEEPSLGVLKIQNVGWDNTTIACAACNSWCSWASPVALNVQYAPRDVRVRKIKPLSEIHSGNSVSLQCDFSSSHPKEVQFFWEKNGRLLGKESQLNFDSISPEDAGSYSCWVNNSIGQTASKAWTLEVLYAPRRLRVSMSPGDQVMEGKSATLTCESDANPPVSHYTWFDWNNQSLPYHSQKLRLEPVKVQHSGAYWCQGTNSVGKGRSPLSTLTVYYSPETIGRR

B1: F1.105.11 (antibody, human IgG1, kappa, V domains shown)
VH: EVQLQQSGPVLVKPGASVKMSCKASGYTFSDYFMNWVKQSHGKSLEWIGIINSYSGGTSYNQKFKGKATLTVDKSSSTAYMELNSLTSEDSAVYYCARWMDYWGQGTSVTVSS
VL: DVQITQSPSYLAASPGETITINCRTSESISKHLAWYQEKPGKTNKLLIYSGSTLQSGIPSRFSGSGSGTDFTLTISSLEPEDFAMYYCQQHNEYPWTFGGGTKLEIKR
notes: Human-murine chimeric IgG1, kappa
B2: F1.17.1 (antibody, human IgG1, kappa, V domains shown)
VH: QVQLKESGPGLVAPSQSLSITCTVSGFSLSRYTVHWVRQPPGKGLEWLGMIWGGGSTDYNSALKSRLSISKDNSKSQVFLKMNSLQTDDTAMYYCARPHDFDAGGFAYWGQGTLVTVSA
VL: QIVLTQSPAILSTSPGEKVTMTCSASSRVNYMYWYQQKPGSSPRLLIYDTSNLASGVPVRFSGSGSGTSYSLTISRMEAEDAATYYCQQWTSYPLTFGAGTKLELKR
notes: as for B1
B3: F1.216.2 (antibody, human IgG1, kappa, V domains shown)
VH: QVQLQQSGPEVVRPGASVKISCKASGYAFSSSWMNWMKQRPGKALEWIGRIYPGDGDTNYSGEFKVKATLTADKSSSTAYMQLSSLTSEDSAVYFCAREGSYYSNPWYFDYWGQGTTLTVSS
VL: DVLVTQTPLSLPVSLGDQASISCRSSQSIVQSNGDTYLEWYLQKPGQSPKLLIYKVSNRFSGVPDRFSGSGSGTDFTLKISRVEAEDLGVYYCFQGSHVPFTFGSGTKLEIKR
notes: as for B1
B4: F1.200.11 (antibody, human IgG1, kappa, V domains shown)
VH: QNQLVQSGPELKKPGETVKISCKASGYTFTTAGMQWVQKMPGKGFKWIGWINTLSGEPKYAEDFKGRFAFSLETSATTAYLQISNLKNEDTATYFCARAYYSNLYWYFDVWGTGTTVTVSS
VL: DIVMTQSQKFMSTTVGDRVTITCKASQNVVTAVAWYQQKPGQSPKVLIYSASNRYSGVPDRFTGSGSGTDFTLTISNMHSEDLANYFCHQYSSYPFTFGSGTKLEIKR
notes: as for B1
B5: F1.224.1 (antibody, human IgG1, kappa, V domains shown)
VH: EVLLHQSGPELVKPGASVKISCKASGYTFTDFNMDWVRQRHGQSLEWIGDVNPNNGGTIYNQKFKGKATLTVDKSSSTVYMDLRSLTSDDTAVYYCVRLGTSDYGEAWFISWGQGTVVTVSA
VL: DIVLTQSPASLAVSLGQRATISCRASQSVSTPRYSFMHWYQQKPGQPPKLLIKYASNLESGFPARFTGSGSGTDFTLNIHPVEEEDTAAYYCQQSWAIPWTFGGGTKLEIKR
notes: as for B1
B6: F2.180.16 (antibody, human IgG1, lambda, V domains shown)
VH: EVKLVESGGGLVLPGGSLKISCAASGFTFSDYYMYWIRQTPDKRLEWVAYISNTGYSTFYPDSVKGRFTVSRDNAKNTLYLQMSRLQSEDTAMYYCARHGILYAMDYWGQGTSVTVSS
VL: QPVLTQSSSASFSLGASAKLTCTLSSQYSTYTIGWYQQQPLKPPKYVMELKHDGSRHTGDGIPDRFSGSSSGADRYLSISNIQPEDEATYICGVGDTIKEQFMYVFGGGTKVTVLG
notes: Human-murine chimeric IgG1, lambda
B7: HA22-hIgG1 (antibody, V domains shown)
VH: EVQLVESGGGLVKPGGSLKLSCAASGFAFSIYDMSWVRQTPEKCLEWVAYISSGGGTTYYPDTVKGRFTISRDNAKNTLYLQMSSLKSEDTAMYYCARHSGYGTHWGVLFAYWGQGTLVTVSA
VL: DIQMTQTTSSLSASLGDRVTISCRASQDISNYLNWYQQKPDGTVKLLIYYTSILHSGVPSRFSGSGSGTDYSLTISNLEQEDFATYFCQQGNTLPWTFGCGTKLEIKR
B8: F1.120.15 (antibody, human IgG1, kappa, V domains shown)
VH: QVQLQQSGPELVKPGASVKISCKASGNAFSNSWMNWVKQRPGKGLEWIGRVYSEDGDTQYNGKFRDKATLTADRSTSTAYMQLSSLTSEDSAVYFCARWLIYYGTYGAMDYWGQGTSVTVSS
VL: B7 VL with S30N, Q37H, Y50F, I53R, L54P, H55Y, F83I, C100G
notes: as for B1

Columns and labels:
[1] = molecular target: T1, human CD22-ECD-His protein; experiment: ELISA, Ab 0.01 nM
In short: (§1)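 Plates were coated overnight at 4 °C with human CD22-ECD-His at 2 μg/mL in PBS and blocked with PBS + 2% BSA for 2 h at room temperature. Chimeric antibodies were bound for 2 h at 37 °C, then HRP secondary for 2 h at 37 °C; TMB developed 30 min, stopped with 1.0 N HCl.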

[2] = molecular target: T1, human CD22-ECD-His protein; experiment: ELISA, Ab 0.10 nM
In short: as §1

[3] = molecular target: T1, human CD22-ECD-His protein; experiment: ELISA, Ab 0.001 nM
In short: as §1

[4] = molecular target: T1, human CD22-ECD-His protein; experiment: ELISA, Ab 10.00 nM
In short: as §1

[5] = molecular target: T1, human CD22-ECD-His protein; experiment: ELISA, Ab 0.0001 nM
In short: as §1

[6] = molecular target: T1, human CD22-ECD-His protein; experiment: ELISA, Ab 100.00 nM
In short: as §1

[7] = molecular target: T1, human CD22-ECD-His protein; experiment: ELISA, Ab 0.00001 nM
In short: as §1

[8] = molecular target: T1, human CD22-ECD-His protein; experiment: ELISA, human CD22-ECD-His coated
In short: as §1

[9] = molecular target: T2, murine CD22 protein (ACROBiosystems, …); experiment: ELISA, murine CD22-ECD-His coated
In short: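 Direct ELISA: chimeric antibody binding to CD22 coated at 2 μg/mL, with a 37° C, 2 h antibody step and HRP/TMB detection.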

[10] = molecular target: T3, human CD22 domain5-7-His; experiment: ELISA, human CD22 domain5-7-His coated

Binder	OD450 [1] [OD450]	OD450 [2] [OD450]	OD450 [3] [OD450]	OD450 [4] [OD450]	OD450 [5] [OD450]	OD450 [6] [OD450]	OD450 [7] [OD450]	EC50 (read off the curve) [8] [nM]	binding result [9]	EC50 (read off the curve) [10] [nM]	binding result [10]
B1	1.93	2.52	0.53	2.68	0.14	2.79	0.08	~0.04	no binding (tested: 100 nM)	~0.1	–
B2	1.85	2.41	0.75	2.21	0.2	2.86	0.11	~0.03	no binding (tested: 100 nM)	–	no binding (tested: 100 nM)
B3	2.48	2.55	1.71	2.53	0.45	2.69	0.2	~0.006	no binding (tested: 100 nM)	–	no binding (tested: 100 nM)
B4	2	2.4	0.85	2.33	0.51	2.34	0.33	~0.03	no binding (tested: 100 nM)	~0.03	–
B5	2.21	2.37	1.08	2.43	0.34	3.12	0.17	~0.02	no binding (tested: 100 nM)	–	no binding (tested: 100 nM)
B6	1.55	1.8	0.61	2.08	0.31	2.61	0.21	–	no binding (tested: 100 nM)	–	–
B7	2.12	2.57	0.89	2.61	0.33	2.65	0.19	~0.02	no binding (tested: 100 nM)	–	no binding (tested: 100 nM)
B8	2.28	2.63	1.21	2.61	0.42	2.89	0.12	~0.02	no binding (tested: 100 nM)	–	no binding (tested: 100 nM)
